This data set concerns the target T1, AmtR (Corynebacterium glutamicum ATCC 14067, UniProt H7C699 1-222).
T1 sequence: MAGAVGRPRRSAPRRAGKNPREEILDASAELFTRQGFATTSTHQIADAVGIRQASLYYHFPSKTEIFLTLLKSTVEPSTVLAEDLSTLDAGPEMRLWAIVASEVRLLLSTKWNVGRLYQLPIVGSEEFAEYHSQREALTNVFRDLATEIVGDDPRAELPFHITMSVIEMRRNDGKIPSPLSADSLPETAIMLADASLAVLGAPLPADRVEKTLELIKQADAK
Nature of the data set: EMSA; EMSA, 20 ul: 10 mM Tris pH 7.0, 50 mM KCl, 1 mM DTT, 5 mM MgCl (so in the source), 10 mM EDTA, 2.5% glycerol, 0.05% NP-40, 50 ng/ul poly(dIdC); 100 ng DNA, 0-0.8 ug AmtR; 6% native PAGE, 0.5x TBE, GelRed; temperature not stated. Conditions: protein: recombinant; tags: C-terminal His6; chain copies: 2; blunt.

B1: PcreT-1 (oligos PcrnT-1-S/A) (dsDNA)
DNA 1: ACCACCAATGAAACCTATCGGTCTATAGAAATTGACATTGCT
DNA 2: AGCAATGTCAATTTCTATAGACCGATAGGTTTCATTGGTGGT
As for B1, the binding result is listed as “binds”.

B2: PhyuB-1 (dsDNA)
DNA 1: TTGAAAACTTTTCGATAGAGCAATAGAAATTTCCCAGCCCAA
DNA 2: TTGGGCTGGGAAATTTCTATTGCTCTATCGAAAAGTTTTCAA
B2: the binding result is listed as “binds”.

B3: PcreT-2 (oligos PcrnT-2-S/A) (dsDNA)
DNA 1: ATTTATATTCTTTTCTATCACCCTATAGAAACATATTGGACG
DNA 2: CGTCCAATATGTTTCTATAGGGTGATAGAAAAGAATATAAAT
With B3, the binding result is recorded as “binds”.

B4: PhyuB-2 (dsDNA)
DNA 1: CCCGGGGTGATTTTCTATCGTGTGATAGGTTTAATTCTGTTG
DNA 2: CAACAGAATTAAACCTATCACACGATAGAAAATCACCCCGGG
In the case of B4, the binding result was “binds”.
